# T1: NRAS wild-type (Q61) peptide on HLA-A*01:01 (human)
# T1 peptide: ILDTAGQEEY
# T2: NRAS Q61K (RAS.Q61K; the sequence is shared by NRAS, KRAS and HRAS) peptide on HLA-A*01:01 (human)
# T2 peptide: ILDTAGKEEY
# T3: NRAS Q61R (RAS.Q61R) peptide on HLA-A*01:01 (human)
# T3 peptide: ILDTAGREEY
# What was measured:
# HLA-A*01:01 [1] = biological target: T4, HLA-A*01:01 (human); experiment: HLA-peptidomics (W6/32 immunoaffinity, LC-MS/MS) of HLA-A*01:01 mono-allelic 721.221 cells with a RAS.Q61K minigene
# T4 construct: whole, on cells; also called HLA allele A*01:01
# Experimental: Focusing on RAS.Q61K, we therefore set out to unbiasedly query the HLA-A*01:01-bound neoantigen landscape. […] This overexpression setup has the advantages of availability and neoantigen-amplification, while still maintaining native antigen processing and presentation. Mass-spectrometry (MS) results were analyzed using MaxQuant and queried against the human proteome dataset (Uniprot), to which we manually added the minigene sequence.
# HLA-A*01:01 [2] = biological target: T4, HLA-A*01:01; experiment: HLA-peptidomics (targeted MS) of HLA-A*01:01 mono-allelic 721.221 cells with a RAS.Q61R minigene
# [3] = biological target: T1, NRAS wild-type (Q61) peptide on …; experiment: cytokine release
# [4] = biological target: T2, NRAS Q61K (RAS.Q61K; the sequence is …); experiment: multimer staining
# [5] = biological target: T3, NRAS Q61R (RAS.Q61R) peptide on …; experiment: activation reporter or marker
binding result (HLA-A*01:01 [1]),binding result (HLA-A*01:01 [2]),binding result [3],binding result [4],binding result [5],Binder
–,–,no recognition,recognises,–,NH2 (TCR) alpha TRAV19 TRAJ39 CDR3: CALSETINNAGNMLTF beta TRBV6-1 TRBJ1-1 CDR3: CAASQNTEAFF
–,–,no recognition,recognises,no recognition,N17.2 (TCR) alpha TRAV5 TRAJ9 CDR3: CAESSGGGFKTIF beta TRBV6-6 TRBJ2-7 CDR3: CASSTPGPSAYEQYF
–,–,no recognition,recognises,no recognition,N135.1 (TCR) alpha TRAV19 TRAJ39 CDR3: CALSESHNNAGNMLTF beta TRBV6-1 TRBJ1-1 CDR3: CAASQNTEAFF

# More lines, now with the values behind:
Binder,binding result (HLA-A*01:01 [1]),binding result (HLA-A*01:01 [2]),binding result [3],binding result [4],binding result [5]
ILDTAGKEEY (also called RAS.Q61K-derived neopeptide) [ILDTAGKEEY (SEQ ID NO: 1) neopeptide],binds,–,–,–,–
ILDTAGREEY (also called RAS.Q61R-derived neopeptide) [ILDTAGREEY (SEQ ID NO: 34) neopeptide],–,binds,–,–,–
N17.3.2 (TCR) alpha TRAV19 TRAJ17 CDR3: CALSESGDAAGNKLTF beta TRBV6-1 TRBJ1-1 CDR3: CAEGENTEAFF,–,–,no recognition,recognises,no recognition

# — patent US20240180966A1 (YEDA RESEARCH AND DEVELOPMENT, published 2024)
